Article PMC8110528, “MyD88 TIR domain higher-order assembly interactions revealed by microcrystal electron diffraction and serial femtosecond crystallography” (Nature Communications, 2021)

Target: T1, GFP-MAL^TIR fusion protein (EGFP residues 3-239; MAL residues 79-221) (UniProt P58753 79-221)
T1 construct: MAL (MyD88 adaptor-like/TIRAP), TIR domain, residues 79-221; Printed order of the fusion: EGFP residues 3-239, GSGGS linker, MAL residues 79-221, in pMCSG7; source: E. coli BL21 (DE3), purified (HisTrap FF, Superdex 75)
T1 sequence (P58753 79-221): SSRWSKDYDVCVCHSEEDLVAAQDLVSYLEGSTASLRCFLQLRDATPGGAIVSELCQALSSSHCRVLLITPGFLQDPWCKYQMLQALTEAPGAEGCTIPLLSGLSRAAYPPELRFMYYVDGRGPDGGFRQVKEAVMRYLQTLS
Test: crystal growth assay (DIC and GFP fluorescence microscopy); GFP-MAL^TIR-MyD88^TIR or MAL^TIR-MyD88^TIR seeds washed three times, diluted and mixed with MyD88^TIR (95 µM); 10 mM HEPES pH 7.5, 150 mM NaCl, 30 °C
Details: both partners purified

B1: MyD88 TIR domain (MyD88^TIR), residues 155-296 (domain or fragment, human, UniProt Q99836 155-296, looked up)
chain: GHMPERFDAFICYCPSDIQFVQEMIRQLEQTNYRLKLCVSDRDVLPGTCVWSIASELIEKRCRRMVVVVSDDYLQSKECDFQTKFALSLSPGAHQKRLIPIKYKAMKKEFPSILRFITVCDYTNPCTKSWFWTRLAKALSLP
notes: MyD88 (myeloid differentiation primary response gene 88), TIR domain, residues 155-296 in pET28b; Forms open-ended two-stranded higher-order assemblies in the MAL-induced microcrystals; source: E. coli BL21 (DE3), purified (HisTrap FF, Superdex 75)
- binding result: binds
